T1: rat calcitonin receptor (rat, UniProt P32214 25-516)
T1 construct: whole, on cells; membranes of transiently transfected BHK tk'ts 13 cells (Assay VIII); also called rCTR; rat calcitonin (a) receptor
T1 sequence (looked up): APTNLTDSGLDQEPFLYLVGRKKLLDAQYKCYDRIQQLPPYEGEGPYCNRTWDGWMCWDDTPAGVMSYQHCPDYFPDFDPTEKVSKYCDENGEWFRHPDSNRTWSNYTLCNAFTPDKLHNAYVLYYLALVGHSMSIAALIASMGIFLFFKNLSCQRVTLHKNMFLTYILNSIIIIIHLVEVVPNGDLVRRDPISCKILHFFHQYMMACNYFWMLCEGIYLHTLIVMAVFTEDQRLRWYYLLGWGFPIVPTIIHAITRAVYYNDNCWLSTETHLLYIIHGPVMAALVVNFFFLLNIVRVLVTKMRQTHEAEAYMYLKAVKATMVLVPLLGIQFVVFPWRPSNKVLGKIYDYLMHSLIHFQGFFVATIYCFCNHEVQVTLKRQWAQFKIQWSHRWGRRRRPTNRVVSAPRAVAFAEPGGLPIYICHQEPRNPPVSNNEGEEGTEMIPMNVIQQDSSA

T2: human calcitonin receptor (human, UniProt P30988 25-474)
T2 construct: whole, on cells; membranes of stably transfected BHK cells (Assay VII); also called hCTR; hCT
T2 sequence (looked up): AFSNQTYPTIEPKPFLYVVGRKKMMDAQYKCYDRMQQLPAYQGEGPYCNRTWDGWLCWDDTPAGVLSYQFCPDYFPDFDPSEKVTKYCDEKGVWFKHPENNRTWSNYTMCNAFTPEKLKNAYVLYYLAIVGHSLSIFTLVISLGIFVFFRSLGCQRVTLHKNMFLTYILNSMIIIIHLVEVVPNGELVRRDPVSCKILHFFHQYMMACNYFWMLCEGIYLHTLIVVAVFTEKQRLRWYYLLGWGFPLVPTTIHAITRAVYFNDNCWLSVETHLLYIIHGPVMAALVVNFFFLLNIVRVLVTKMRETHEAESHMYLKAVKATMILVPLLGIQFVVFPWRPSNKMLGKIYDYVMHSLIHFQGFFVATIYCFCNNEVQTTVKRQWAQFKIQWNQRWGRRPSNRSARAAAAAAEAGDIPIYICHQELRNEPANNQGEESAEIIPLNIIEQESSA

T3: rat amylin receptor (rat calcitonin receptor + rat RAMP 3) (rat, UniProt P32214 25-516; Q9JJ73 23-147)
T3 construct: whole, on cells; membranes of transiently transfected BHK tk'ts 13 cells (Assay VI); also called rAmylin-R; rat amylin 3(a) receptor
T3 sequence (looked up) 1: T1 sequence (looked up)
T3 sequence (looked up) 2: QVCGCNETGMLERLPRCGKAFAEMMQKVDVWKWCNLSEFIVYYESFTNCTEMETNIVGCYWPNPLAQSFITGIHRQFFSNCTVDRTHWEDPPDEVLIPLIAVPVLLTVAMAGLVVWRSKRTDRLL

B1: N^α1-[(4S)-4-carboxy-4-(19-carboxynonadecanoylamino)butanoyl]-[Arg17,Pro21,Pro27,Glu35]-h-amylin (peptide)
peptide: KCNTATCATQRLANFLRHSSPNFGAIPSSTNVGSETY
modifications: C20 diacid-gGlu on the alpha amino group of the N-terminal residue (Lys 1); disulfide bridge between the two Cys residues; C-terminal amide
notes: analogue of human amylin; also called compound 23
B2: N^α1-[2-[2-[2-[[2-[2-[2-[[(4S)-4-carboxy-4-(19-carboxynonadecanoylamino)butanoyl]amino]ethoxy]ethoxy]acetyl]amino]ethoxy]ethoxy]acetyl]-[Glu14,Arg17,Pro21,Pro27 … (peptide)
peptide: B1 peptide with N14E, E35N
modifications: C20 diacid-gGlu-2xOEG on the alpha amino group of the N-terminal residue (Lys 1); disulfide bridge between the two Cys residues; C-terminal amide
notes: analogue of human amylin; also called compound 19
B3: N^α1-[(4S)-4-carboxy-4-(19-carboxynonadecanoylamino)butanoyl]-[Arg17,Pro21,Pro27,His34]-h-amylin (peptide)
peptide: B1 peptide with S34H, E35N
modifications: C20 diacid-gGlu on the alpha amino group of the N-terminal residue (Lys 1); disulfide bridge between the two Cys residues; C-terminal amide
notes: analogue of human amylin; also called compound 40
B4: N^α1-[(4S)-4-carboxy-4-(19-carboxynonadecanoylamino)butanoyl]-[Arg17,Pro21,Pro27,Arg34]-h-amylin (peptide)
peptide: B1 peptide with S34R, E35N
modifications: C20 diacid-gGlu on the alpha amino group of the N-terminal residue (Lys 1); disulfide bridge between the two Cys residues; C-terminal amide
notes: analogue of human amylin; also called compound 39

Residue numbers refer to the chain shown, from its start.

The target of the first experiment is T1, rat calcitonin receptor. Briefly: IC50 on rat calcitonin receptor divided by IC50 on rat amylin receptor (SPA competition).
For B1, the “Ratio rCT/rAmylin binding” value was 71.3.
Same read-out and setting: in the case of B2 it was 93.6.
Same read-out and setting: in the case of B3 it was 46.2; in that of B4, 54.5.

The next experiment deals with T2, human calcitonin receptor. The experiment in a line: IC50 on human calcitonin receptor divided by IC50 on human amylin receptor (SPA competition). On the procedure:
The resulting pellet was resuspended, homogenized and centrifuged (20.000 rpm, 15 min) in a buffer containing 20 mM Na-HEPES and 0.1 mM EDTA (pH 7.4, buffer 2). The resulting pellet was resuspended in buffer 2 and protein concentration was measured (BCA protein Assay, Pierce). The homogenate was kept cold during the whole procedure. The membranes were kept at −80° C. until use. The assay was performed in a 384 well Optiplate (PerkinElmer) in a total volume of 40 ul. Membranes were mixed with SPA beads. Final concentration of membranes 35 ng/μL final and SPA beads was 0.05 mg/well. Test-compounds were dissolved in DMSO and further diluted in assay buffer (50 mM Hepes, pH 7.4, 1 mM CaCl2, 5 mM MgCl₂, 0.1% OA and 0.02% Tween20). […] The final mixture was incubated with shaking at 400 rpm for 120 min at 25° C. prior to centrifugation (1500 rpm, 10 min). Samples were analyzed on TopCounter™ (Packard). The IC₅₀ was calculated using (one site binding competition analysis) GraphPad Prism5 as a measure of receptor affinity.
Membranes were prepared in the following way; the cells were rinsed with PBS and incubated with Versene for approximately 5 min before harvesting. The cells were flushed with PBS and the cell-suspension was centrifuged for 5 min at 1000 rpm. Cells were homogenized (Ultrathurrax) in a buffer containing 20 mM Na-HEPES and 10 mM EDTA (pH 7.4) and centrifuged at 20.000 rpm for 15 min. The resulting pellet was resuspended, homogenized and centrifuged (20.000 rpm, 15 min) in a buffer containing 20 mM Na-HEPES and 0.1 mM EDTA (pH 7.4, buffer 2). The resulting pellet was resuspended in buffer 2 and protein concentration was measured (BCA protein Assay, Pierce). The homogenate was kept cold during the whole procedure. The membranes were kept at −80° C. until use. Assay was performed in a 384 well Optiplate (PerkinElmer) in a total volume of 40 ul. Membranes were mixed with SPA beads.
As for B1, the “Ratio hCT/hAmylin binding” value is 25.
For B2, the “Ratio hCT/hAmylin binding” value came out at 36.7.
For the molecule B3, the “Ratio hCT/hAmylin binding” value came out at 31.1.
Regarding B4, the “Ratio hCT/hAmylin binding” value is 29.

For another experiment, the target named is T1, rat calcitonin receptor. The experiment in a line: SPA competition with 125I-calcitonin, membranes of BHK cells with rat calcitonin receptor (Assay VIII).
B1: the IC50 is 79.9 nM.
For B2, the half-inhibitory concentration (IC50) was determined as 95.6 nM.
For the molecule B3, the half-inhibitory concentration (IC50) turned out to be 69.2 nM.
In the case of B4, the IC50 was determined as 96.4 nM.

The target in another experiment is T3, rat amylin receptor (rat calcitonin …). Briefly: SPA competition with 125I-rat amylin, membranes of BHK cells with rat calcitonin receptor + rat RAMP3 (Assay VI).
B1: the 50% inhibitory concentration (IC50) was 1.12 nM.
Still for that read-out and setting: then B2, with 1.02 nM.
For the molecule B3, the half-inhibitory concentration (IC50) was found to be 1.5 nM.
The same measure, in the same setting: then B4, with 1.77 nM.

The values are drawn from US20140087995A1 (published 2014).
